According to the DeepSol protein solubility set:

Assay: soluble on expression in E. coli; label from the status in PepcDB or PDB records

Sequence | soluble on expression in E. coli
MSLTRDGSPWIPIAGEMHYSRIAAERWDTELAKMAAAGIDVVSTYVFWNHHEEREGEWDFSGNRNVRRFVELCARHGLHVIVRLGPFCHGEVRNGGLPDWLYGKSYEVRSLDAGFLDAVRGLYAHIAQQLRGLYFKDGGPIIAAQVDNEYMASSAPWEMTTGISREWVPSGHDGAGYLERLRDIAIEEGIDPPMFTCTGWQSPVPDDMLPLWGGYAYRPWLFYDGVGAEGMTEHPATDEYRYRRLHGSSTSDGFDPPYDPDSRPYACCEMGGGMFNSYDYRFVLPKRSVDAMANIKLGSGCDFLGYYMFHGGTNPKGAAGFLNEGQTPKRSYDFQAPLGKFGQVRESYRRLRTLHEFVKAFGPELAGMPVSLQDGQDRIDPSDSETLRYAVRSDGERGFVSIDNFQDHARVPSRHGEQIDVTTGTGERIRFTGIGLAEGENCILPFNMDLDGVRLVRANLQPVTVLRVPGRPFRTFVFLKPDGMDELTFHFEGDIQDVTVGKADFERFMVRDAAEIVCVTRALAGRMTVLDGGLAFVDDDNALLYEDGDGWTLESPRAENGIAAYPEGLLGSPRPVEPVSVYARMRRLHADRYEIALPAGMGRLFRDQRQVADVMLNIAYQGDIGWLFCGDVLIADNFCNGETWQVGLRDYADAIDAAGGKLTLVVTPLRRGVRVKVTSSMAARLEQSDACVADVTDVYATPVYHMPVGEGHHHHHH | soluble
MISNRILQTTVDGLKAISRVDLCIVDADKNVAAKTFDNVSECLADAISFIDSPAESQAVNGFQFFKVEDEGNLEYIIMARGTSDDVYMVGKLAAFQIQNLLVAYKERFDKDNFIKNLLLDNLLRVDMYTRAEKLHIETDVKRVVYIIETKHEKDTSALETVRTLFANKTRDFITAVDEKSIILVKEVKGNESYDELDKTADVIIDMLNTEAMSAAHVAYGTIVNDIREVSRSYKEAKMALDVGKIFYSNKNVVAYNRLGIGRLIYQLPIPLCQMFIKEIFEGKAPDDFDDETLSTINKFFENSLNVSETSRQLYIHRNTLVYRLDKIQKITGLDLRVFDDAITFKIALMVVKYMKYMESKDTF | not soluble
MSLGDFSELARVNGEPVYVKEYKMKLLSNTTEVINYFSQSYAVETKENFRTDSYSGEAPVEMARKKALDDIVEVKVQQILAKEKGIIESTDYREFLKELENENRQRKDALKSNKVVYGPDNYGEIEYFNYSFDNMVSKLKEKLKENELSIPEEKLESMYNLLKDTRFKLPDDIKIQVISIGFTDEKGIINDDLKSKARVKIEEAKKRIDNGEPFEEVALDYNPKSGVLEYVFTKEKQMAKDISHPELLDEALKLKPGQVSEIIERSTDFVLILCKEKKSTGYLPYKDARKQLLDELIEKDYQEYIDKLVEQADVKINEKLYRRINVNEGHHHHHH | soluble
HGPAEISDLDRQIEQLRRCELIKESEVKALCAKAREILVEESNVQRVDSPVTVCGDIHGQFYDLKELFRVGGDVPETNYLFMGDFVDRGFYSVETFLLLLALKVRYPDRITLIRGNHESRQITQVYGFYDECLRKYGSVTVWRYCTEIFDYLSLSAIIDGKIFCVHGGLSPSIQTLDQIRTIDRKQEVPHDGPMCDLLWSDPEDTTGWGVSPRGAGYLFGSDVVAQFNAANDIDMICRAHQLVMEGYKWHFNETVLTVWSAPNYCYRCGNVAAILELDEHLQKDFIIFEAAPQETVRASSPSPL | soluble
MATSKLQALWNHPAGPKTIHFWAPTFKWGISIANIADFQKPPENISYLQQIAVTCTGMIWCRCSTIITPKNWNLFSVNVAMAATGIYQLTRKIKYDYVSEAEAAVEIEG | not soluble
MAHHHHHHMQSSISQEKLQLMQKNFNLVDLNKDGKIAAEEFKTLLRLLGQTKTEKEMDEMVDKHFEDAPIGEEQQQDAAEAADKGGANEGTPSTAKQLGGQ | soluble
MLFIAFAPFGAFALEANSKNDGYSLDDIKYYKIFENEDIPKIMYALRQGDFEIIAELKNEWEIEEEDVSFEYTTSKNPLGELIRDNLYELGQKYEVFEDESDFVSKMNVWATAFTKSMMKKSSEQKDKLIVQTVNALDNLDETLNLFSERLREWYSLYFPEMDNIVKKHDIYVSLVSEYGDREEYTRTKLKKTMPSNVARTISLAAKESMGADVSEFDLKIMKNLADEIKSMYEYRESLQEYLETSMNEIAPNLTKVAGASLGARLISLAGGIERLLRLPASTIQVIGAEKALFAHLRERALPPKHGVIFQHPLIQGSPWWIHGKIARAISCKISIAIRADAFGNDISDMLIEDMNKKVAEIKEKFPEPTRKRRPRPDTRSFGNKGGQDRDRRSQGDRKPSGNRGDSKKGGKPFGKKPAGKDDRRDNRKGDRKPFGGKPKNSGNQPPKERSGEKRRDSTKKVKAERKVIGKTSSQNLEHHHHHH | soluble
